Results as given in patent EP4763862A1.
Numbering of substitutions follows the chain as printed.

B1: 19-F1-E9-B11 (antibody, human IgG1, kappa, V domains shown)
VH: EVQLQQSGPSLVKPSQTLSLTCSVTGGSITSFYWNWIRKFPGNKLEYMGYISSSGSTYYNPSLKSRISITRDTSKNQSYLQLNSVTAEDTATYYCARGGVHYGFGDYWGQGTSVTVSS
VL: DIVMTQSAPSVPVTPGESVSISCRSSKSLLHSNGNTYLYWFLQRPGQSPQLLIYRMSNLASGVPDRFSGSGSGTAFTLRISRVEAEDVGVYYCMQHLEYPLTFGAGTKLELKR
B2: 28-B1-E8-C11 (antibody, human IgG1, kappa, V domains shown)
VH: EVKLVESGAVLVKPGASVKISCKASGYTLSDFNMDWVKQSQGKSLEWVGDINPNYDTITYNQKFRGKATLTVDRSSNTAYMELRSLTSEDSAVYYCARGELGRYFYVWGAGTTVTVSS
VL: DIQLTQPPASLSASVGETVTITCRASENVYSYLAWYRQKQGRSPQLLVYNAKTLPEGVPSRFSGSGSGTQFSLKINSLQTEDLGDYYCQHHYGTPWTFGGGTKLEIKR
B3: 16-B6-G3-E10 (antibody, human IgG1, kappa, V domains shown)
VH: EVQLQQSGTELVRPGALVKLSCKTSGFNIKDCYMHWVKQRPEQGLEWIGWIDPENGNTIYDPKFQGKATITADTSSYTAYLQLSSLTSEDTAVYYCARSRARGYAMDYWGQGTSVTVTS
VL: DIVMTQSPASLAVSLGQRATISCRASQSVSTSSYSYMHWYRQIPGQPPKLLIKYASNLESGVPARFSGSGSGTDFTLNIHPVEEEDTATYYCQHSWEIPRTFGGGTKLELKR
B4: 34-H11-D9-F6 (antibody, human IgG1, kappa, V domains shown)
VH: EVQLQQSGAELVKPRASVRLSCRASGYTFTSYWMHWVKQRPGQGLEWIGMIHPNSGSTNYNEKFKSKATLTVDKSSSTAYMQLSSLTSEDSAVYFCARERFGLLRYFDYWGQGTTLTVSS
VL: DIVMTQSPSSMYASLGERVTITCKASQDINSFLSWFQQKPGKSPKTLLYRANRLMDGVPSRFSGSGSGQDFSLTISSREYEDMGIYYCLQYDEFPFTFGSGTKLELKR
B5: 16-D10-E1-E1 (antibody, human IgG1, kappa, V domains shown)
VH: EVQLQQSGPELVRPGVSVKISCKGSGYTFTDYAMHWVKQSHAKSLEWIGVINTYSGNTYYSQKFKGKATMTVDKSSSTAYMELARLTSEDSAIYYCARGAGYFPYWYFDVWGAGTTVTVSS
VL: DIQMIQSPSYLAASPGETITINCRASKSISKYLAWYQEKPGKTNKLLIYSGSTLQSGIPSRFSGSGSGTDFTLTISSLEPEDFAMYYCQQHYEYPYTFGGGTKLEIKR
B6: 28-F8-C4-A8 (antibody, human IgG1, kappa, V domains shown)
VH: EVQLQQSGAELVQPGASMKLSCKTSGYTFTTYDINWVRQRPEQGLEWIGWIFPGDGTTKYNEKFKGKATLTTDKSSSTAYMHLSRLTSEDSVVYFCARTPWFDYWGQGTTLTVSS
VL: DIVLSQSPAIMSASPGEKVIMTCSASSSISYMYWYQQKPGTSPKRWIYDTSKLASGVPARFSVSGSGTSYSLTISSMEAEDAATYYCHQRSSYPTFGGGTKLELKR
B7: cAb1-z0-p7 (antibody, human IgG1, kappa, V domains shown)
VH: EVQLVESGGGLVKPGGSLRLSCAASGFTFSSYGMSWVRQAPGKGLEWVSSISGSGSYTYYPDSLKGRFTISRDNAKNSLYLQMNSLRAEDTAVYYCARQQGYWYFDVWGQGTTVTVSS
VL: DIVMTQTPLSLPVTPGEPASISCRASQSLASSYGKTYLSWYLQKPGQSPQLLIYGISNRFSGVPDRFSGSGSGTDFTLKISRVEAEDVGVYYCLHGTHQPLTFGQGTKLEIKR
B8: cAb1-z3-p7 (antibody, human IgG1, kappa, V domains shown)
VH: B7 VH with G44R
VL: B7 VL with I2V
B9: cAb1-z5-p7 (antibody, human IgG1, kappa, V domains shown)
VH: B7 VH with G44R, S49A
VL: B7 VL with I2V
B10: cAb2-z1-p9 (antibody, human IgG1, kappa, V domains shown)
VH: B2 VH
VL: DIQLTQPPSSLSASVGDRVTITCRASENVYSYLAWYQQKPGRSPQLLVYNAKTLPEGVPSRFSGSGSGTQFTLTISSLQPEDFADYYCSHHYGTPWTFGGGTKVEIKR
B11: cAb2-z5-p6 (antibody, human IgG1, kappa, V domains shown)
VH: QVQLVESGAVVKKPGASVKVSCKASGYTLSDFNMDWVRQAPGKSLEWMGDINPNYDTITYNQKFRGRVTLTVDRSINTAYMELSRLRSDDTAVYYCARGELGRYFYVWGAGTMVTVSS
VL: B10 VL

Each binder was assayed against Human B7-H3-His protein (human) (UniProt Q5ZPR3) (assay: BLI, Fortebio Octet R2, antibody on AMQ sensor, human B7-H3-His in solution).
A Kd of 2.32 nM, a koff of 0.000408 s⁻¹ and a kon of 176000 M⁻¹ s⁻¹ were found for B1 in this work.
A Kd of 0.0714 nM, a koff of 8.49e-05 s⁻¹ and a kon of 1.19e+06 M⁻¹ s⁻¹ were found for B2 in this work.
With B3 the Kd was < 0.001 nM, the koff was < 1e-07 s⁻¹ and the kon was 1.3e+06 M⁻¹ s⁻¹.
A Kd of 0.0522 nM, a koff of 7.52e-05 s⁻¹ and a kon of 1.44e+06 M⁻¹ s⁻¹ were found for B4 in this work.
A Kd of 0.0877 nM, a koff of 0.000142 s⁻¹ and a kon of 1.62e+06 M⁻¹ s⁻¹ were found for B5 in this work.
A Kd of 0.0434 nM, a koff of 7.56e-05 s⁻¹ and a kon of 1.74e+06 M⁻¹ s⁻¹ were found for B6 in this work.

Each binder was assayed against Human B7-H3-His protein (human) (UniProt Q5ZPR3) (assay: SPR, Biacore 8K, antibody captured by anti-human IgG Fc on CM5, B7-H3 Human-His as analyte, 1:1 model).
A Kd of 5.91 nM, a koff of 0.000846 s⁻¹ and a kon of 143000 M⁻¹ s⁻¹ were found for B2 in this work.
A Kd of 6.53 nM, a koff of 8.2e-05 s⁻¹ and a kon of 12600 M⁻¹ s⁻¹ were found for B7 in this work.
A Kd of 4.02 nM, a koff of 6.87e-05 s⁻¹ and a kon of 17100 M⁻¹ s⁻¹ were found for B8 in this work.
A Kd of 3.51 nM, a koff of 7.21e-05 s⁻¹ and a kon of 20500 M⁻¹ s⁻¹ were found for B9 in this work.
A Kd of 4.85 nM, a koff of 0.000802 s⁻¹ and a kon of 165000 M⁻¹ s⁻¹ were found for B10 in this work.
A Kd of 6.6 nM, a koff of 0.00122 s⁻¹ and a kon of 184000 M⁻¹ s⁻¹ were found for B11 in this work.
